Measured values: the MegaScale stability set (Tsuboyama et al. 2023)

B1: 1ZHC (parent)
chain: HEFRDEISVLKANNPHFDKIFEKHNQLDDDIKTAEQQNASDAEVSHMKKQKLKLKDEIHSMIIEYREK

Variants of: B1
Experiment: folding stability dG (cDNA display proteolysis); higher = more stable
Conditions: PBS, room temperature

In order of falling “folding stability dG” value:
1. D18L  2.42 kcal/mol
2. D18K  2.23 kcal/mol
3. E6I  2.1 kcal/mol
4. D18C  1.97 kcal/mol
5. K11R  1.96 kcal/mol
6. D18Q  1.95 kcal/mol
7. E6L  1.76 kcal/mol
8. H24L  1.68 kcal/mol
9. K55A  1.67 kcal/mol
10. E2W  1.66 kcal/mol
11. H24W  1.64 kcal/mol
12. D18H  1.62 kcal/mol
13. H59Y  1.61 kcal/mol
14. M47L  1.59 kcal/mol
15. K23M  1.58 kcal/mol
16. E22K  1.57 kcal/mol
17. D56M  1.57 kcal/mol
18. D29L  1.56 kcal/mol
19. K55R  1.51 kcal/mol
20. H46A  1.5 kcal/mol
21. V9H  1.49 kcal/mol
22. E35M  1.49 kcal/mol
23. S60A  1.48 kcal/mol
24. H46E  1.47 kcal/mol
25. D5W  1.47 kcal/mol
26. K55L  1.45 kcal/mol
27. N13L  1.44 kcal/mol
28. T33K  1.43 kcal/mol
29. A12C  1.42 kcal/mol
30. N25K  1.42 kcal/mol
31. S8M  1.4 kcal/mol
32. I63M  1.4 kcal/mol
33. D29F  1.38 kcal/mol
34. Q37N  1.38 kcal/mol
35. V9K  1.37 kcal/mol
36. A39L  1.36 kcal/mol
37. D5F  1.36 kcal/mol
38. S45T  1.34 kcal/mol
39. D41E  1.33 kcal/mol
40. S8E  1.32 kcal/mol
41. K19C  1.32 kcal/mol
42. Q36M  1.31 kcal/mol
43. E6A  1.3 kcal/mol
44. E67R  1.3 kcal/mol
45. T33V  1.3 kcal/mol
46. H46W  1.29 kcal/mol
47. D28V  1.29 kcal/mol
48. K23W  1.28 kcal/mol
49. D41P  1.28 kcal/mol
50. E43I  1.27 kcal/mol
51. E22M  1.27 kcal/mol
52. S8R  1.26 kcal/mol
53. R4A  1.26 kcal/mol
54. E67N  1.26 kcal/mol
55. A42E  1.26 kcal/mol
56. T33M  1.26 kcal/mol
57. Q36R  1.25 kcal/mol
58. D30Q  1.25 kcal/mol
59. D29V  1.24 kcal/mol
60. I63L  1.24 kcal/mol
61. H46I  1.23 kcal/mol
62. D41A  1.23 kcal/mol
63. D5H  1.23 kcal/mol
64. H24I  1.22 kcal/mol
65. N13Q  1.22 kcal/mol
66. D56K  1.22 kcal/mol
67. A34L  1.21 kcal/mol
68. D30C  1.21 kcal/mol
69. K68R  1.2 kcal/mol
70. S60Q  1.2 kcal/mol
71. D56F  1.18 kcal/mol
72. H46Q  1.17 kcal/mol
73. R4L  1.17 kcal/mol
74. Q36S  1.17 kcal/mol
75. V9A  1.16 kcal/mol
76. D18G  1.16 kcal/mol
77. N25L  1.14 kcal/mol
78. I7C  1.14 kcal/mol
79. K55S  1.14 kcal/mol
80. R4M  1.13 kcal/mol
81. H1L  1.12 kcal/mol
82. A39K  1.1 kcal/mol
83. K19E  1.1 kcal/mol
84. H46C  1.09 kcal/mol
85. E43R  1.08 kcal/mol
86. V9M  1.07 kcal/mol
87. A39F  1.07 kcal/mol
88. V9I  1.06 kcal/mol
89. H59T  1.06 kcal/mol
90. V9Q  1.05 kcal/mol
91. K11C  1.05 kcal/mol
92. K53M  1.05 kcal/mol
93. F3L  1.04 kcal/mol
94. R4D  1.04 kcal/mol
95. H46F  1.02 kcal/mol
96. E67L  1.02 kcal/mol
97. Q36A  1.01 kcal/mol
98. Q37S  1 kcal/mol
99. N14W  1 kcal/mol
100. T33F  1 kcal/mol
101. K53R  0.995 kcal/mol
102. S60L  0.991 kcal/mol
103. A39V  0.986 kcal/mol
104. D5M  0.985 kcal/mol
105. E22G  0.979 kcal/mol
106. A39H  0.973 kcal/mol
107. D41Q  0.972 kcal/mol
108. K49T  0.971 kcal/mol
109. D56G  0.971 kcal/mol
110. Q36K  0.963 kcal/mol
111. N14Y  0.963 kcal/mol
112. T33H  0.96 kcal/mol
113. K19Q  0.953 kcal/mol
114. L52K  0.948 kcal/mol
115. H1I  0.939 kcal/mol
116. H16C  0.932 kcal/mol
117. K55E  0.926 kcal/mol
118. D41F  0.919 kcal/mol
119. D5L  0.917 kcal/mol
120. S60T  0.912 kcal/mol
121. Q36E  0.904 kcal/mol
122. D5K  0.902 kcal/mol
123. A39C  0.897 kcal/mol
124. E35Y  0.895 kcal/mol
125. E67V  0.889 kcal/mol
126. N13S  0.889 kcal/mol
127. I62L  0.874 kcal/mol
128. D41L  0.874 kcal/mol
129. S45R  0.873 kcal/mol
130. K32Q  0.87 kcal/mol
131. Q37L  0.867 kcal/mol
132. T33S  0.866 kcal/mol
133. E35V  0.864 kcal/mol
134. K68Q  0.861 kcal/mol
135. A34M  0.859 kcal/mol
136. H1T  0.856 kcal/mol
137. E2M  0.855 kcal/mol
138. S40P  0.855 kcal/mol
139. T33I  0.854 kcal/mol
140. H1N  0.835 kcal/mol
141. S45W  0.834 kcal/mol
142. H59Q  0.83 kcal/mol
143. E64L  0.829 kcal/mol
144. K53V  0.811 kcal/mol
145. I7Y  0.804 kcal/mol
146. D28S  0.804 kcal/mol
147. E2T  0.802 kcal/mol
148. I63A  0.8 kcal/mol
149. D28Q  0.794 kcal/mol
150. S45I  0.788 kcal/mol
151. K23A  0.787 kcal/mol
152. K68A  0.786 kcal/mol
153. D30E  0.784 kcal/mol
154. S45Y  0.766 kcal/mol
155. K51Q  0.766 kcal/mol
156. E64M  0.766 kcal/mol
157. N13A  0.764 kcal/mol
158. D41R  0.76 kcal/mol
159. K48M  0.757 kcal/mol
160. Q50I  0.757 kcal/mol
161. D28H  0.757 kcal/mol
162. E64S  0.735 kcal/mol
163. D28W  0.731 kcal/mol
164. K55N  0.726 kcal/mol
165. D41M  0.722 kcal/mol
166. D5T  0.722 kcal/mol
167. D5E  0.721 kcal/mol
168. E57Q  0.719 kcal/mol
169. K53I  0.711 kcal/mol
170. N13E  0.701 kcal/mol
171. R66I  0.692 kcal/mol
172. F21C  0.68 kcal/mol
173. E43Q  0.669 kcal/mol
174. A34R  0.663 kcal/mol
175. K53T  0.66 kcal/mol
176. N25F  0.65 kcal/mol
177. Q50R  0.642 kcal/mol
178. N38R  0.634 kcal/mol
179. A42K  0.633 kcal/mol
180. E22I  0.633 kcal/mol
181. L10C  0.629 kcal/mol
182. D5N  0.625 kcal/mol
183. N38H  0.624 kcal/mol
184. D56S  0.621 kcal/mol
185. K68S  0.62 kcal/mol
186. K48Y  0.617 kcal/mol
187. H24S  0.609 kcal/mol
188. K11Q  0.591 kcal/mol
189. N13K  0.586 kcal/mol
190. Q36D  0.576 kcal/mol
191. S8H  0.57 kcal/mol
192. K32L  0.566 kcal/mol
193. D28Y  0.56 kcal/mol
194. K19N  0.558 kcal/mol
195. F21L  0.554 kcal/mol
196. F3Q  0.544 kcal/mol
197. K53E  0.543 kcal/mol
198. D29T  0.539 kcal/mol
199. H16R  0.534 kcal/mol
200. E35C  0.531 kcal/mol
201. F3A  0.526 kcal/mol
202. E2N  0.525 kcal/mol
203. S45L  0.524 kcal/mol
204. D30S  0.524 kcal/mol
205. E57Y  0.52 kcal/mol
206. I63E  0.513 kcal/mol
207. K68H  0.512 kcal/mol
208. Q50Y  0.509 kcal/mol
209. V44M  0.497 kcal/mol
210. V9D  0.497 kcal/mol
211. L52H  0.494 kcal/mol
212. E64Y  0.484 kcal/mol
213. N25V  0.471 kcal/mol
214. K68L  0.469 kcal/mol
215. S60E  0.466 kcal/mol
216. A42L  0.464 kcal/mol
217. I20V  0.461 kcal/mol
218. K32A  0.452 kcal/mol
219. P15A  0.443 kcal/mol
220. Q50T  0.433 kcal/mol
221. A42H  0.433 kcal/mol
222. A34C  0.429 kcal/mol
223. K48V  0.419 kcal/mol
224. E22W  0.419 kcal/mol
225. D5Q  0.415 kcal/mol
226. D41G  0.41 kcal/mol
227. K48L  0.4 kcal/mol
228. A12H  0.398 kcal/mol
229. N14F  0.397 kcal/mol
230. R4N  0.384 kcal/mol
231. H16F  0.373 kcal/mol
232. F21I  0.372 kcal/mol
233. F3D  0.364 kcal/mol
234. A39S  0.359 kcal/mol
235. A42S  0.359 kcal/mol
236. D30N  0.359 kcal/mol
237. K55D  0.359 kcal/mol
238. N38D  0.358 kcal/mol
239. K23T  0.355 kcal/mol
240. S40C  0.351 kcal/mol
241. K32W  0.34 kcal/mol
242. P15W  0.335 kcal/mol
243. K32M  0.333 kcal/mol
244. L52V  0.329 kcal/mol
245. R66Q  0.328 kcal/mol
246. N38T  0.312 kcal/mol
247. Y65I  0.311 kcal/mol
248. N13D  0.311 kcal/mol
249. P15I  0.31 kcal/mol
250. P15T  0.292 kcal/mol
251. E57V  0.286 kcal/mol
252. K32F  0.278 kcal/mol
253. N38L  0.276 kcal/mol
254. Q26A  0.273 kcal/mol
255. H16Q  0.27 kcal/mol
256. F3M  0.267 kcal/mol
257. S60V  0.267 kcal/mol
258. E64T  0.262 kcal/mol
259. F3K  0.26 kcal/mol
260. A39Q  0.259 kcal/mol
261. D5A  0.255 kcal/mol
262. F3V  0.222 kcal/mol
263. Q26T  0.215 kcal/mol
264. E57K  0.212 kcal/mol
265. Q26D  0.206 kcal/mol
266. A42W  0.189 kcal/mol
267. Q26N  0.184 kcal/mol
268. K11S  0.169 kcal/mol
269. E35S  0.162 kcal/mol
270. E6H  0.158 kcal/mol
271. K32Y  0.157 kcal/mol
272. I63T  0.157 kcal/mol
273. K32C  0.133 kcal/mol
274. L27I  0.13 kcal/mol
275. K48W  0.118 kcal/mol
276. I62M  0.117 kcal/mol
277. P15D  0.108 kcal/mol
278. I63S  0.079 kcal/mol
279. A39N  0.078 kcal/mol
280. A42G  0.074 kcal/mol
281. A42F  0.065 kcal/mol
282. S40Q  0.039 kcal/mol
283. E64D  0.037 kcal/mol
284. K48T  0.032 kcal/mol
285. K32E  0.008 kcal/mol
286. K19G  0.004 kcal/mol
287. N38P  -0.007 kcal/mol
288. P15F  -0.013 kcal/mol
289. Q26I  -0.025 kcal/mol
290. I7T  -0.043 kcal/mol
291. N14I  -0.077 kcal/mol
292. E57S  -0.103 kcal/mol
293. H24R  -0.124 kcal/mol
294. Q26C  -0.127 kcal/mol
295. N14H  -0.133 kcal/mol
296. D5P  -0.163 kcal/mol
297. N38W  -0.188 kcal/mol
298. I31V  -0.196 kcal/mol
299. Q50S  -0.299 kcal/mol
300. E43G  -0.301 kcal/mol
301. A34Q  -0.306 kcal/mol
302. H24K  -0.319 kcal/mol
303. N38I  -0.331 kcal/mol
304. K11Y  -0.334 kcal/mol
305. I7H  -0.334 kcal/mol
306. H16D  -0.361 kcal/mol
307. V44C  -0.468 kcal/mol
308. N38Q  -0.49 kcal/mol
309. A12W  -0.494 kcal/mol
310. L54C  -0.495 kcal/mol
311. A12P  -0.496 kcal/mol
312. R66S  -0.498 kcal/mol
313. I7N  -0.499 kcal/mol
314. E57F  -0.51 kcal/mol
315. V44Y  -0.518 kcal/mol
316. I58R  -0.534 kcal/mol
317. F17E  -0.562 kcal/mol
318. K11G  -0.572 kcal/mol
319. E35H  -0.572 kcal/mol
320. L27W  -0.576 kcal/mol
321. I58V  -0.599 kcal/mol
322. Q26W  -0.614 kcal/mol
323. I63G  -0.621 kcal/mol
324. L54I  -0.626 kcal/mol
325. P15Y  -0.634 kcal/mol
326. K68D  -0.648 kcal/mol
327. K32D  -0.682 kcal/mol
328. K51N  -0.683 kcal/mol
329. E57D  -0.8 kcal/mol
330. K48N  -0.844 kcal/mol
331. S40W  -0.874 kcal/mol
332. Q26Y  -0.902 kcal/mol
333. V44S  -0.907 kcal/mol
334. M61A  -0.996 kcal/mol
